In patent US20130216544A1 (GEMOAB MONOCLONALS, published 2013):
Substitutions are numbered along the chain they refer to.

B1: anti-La monoclonal antibody 22A (antibody, IgG1, V domains shown)
VH: QVKLEESGPELVKPGAPVKISCKTSGYTFTNYYIYWVKQRPGQGLEWIGYIYPGNGGTAYNQKFKDKATLTADNPSNTAYMQLSSLTSEDSAVYLCARRGALGYYFDYWGQGTTLTVSS
VL: QIVLTQSPAIMSASPGEKVTMTCSASSSVSYMYWYQQKSGTSPKRWIYDTSKLASGVPARFSGSGSGTSYSLTISSMEAEDAATYYCQQWSSNPQFGTGTKLEVKR
B2: anti-La monoclonal antibody 27E (antibody, IgG2b, V domains shown)
VH: VQLQESGAELARPGASVKLSCKASGYSFRSYGINWVKQRTGQGLEWIGEIYPGSGTTFYNEKFRGKATLTADKSSSTAYMQLKSLTSEDSAVYFCARHGGYPFYFDYWGQGTTLTVSS
VL: DIVMTQSPAIMSASPGEKVTISCSASSSVSYMYWYQQKPGSSPKPWIYRTSNLASGVPARFSGSGSGTSYSLTISSMEAEDAATYYCQQYHSYPRTFGGGTKLEIKR
B3: anti-La monoclonal antibody 32A (antibody, IgG1, V domains shown)
VH: VQLQQSGAELARPGASVKLSCKASGYTFTTYGLTWVKQRTGQGLEWIGEIFPGSGTTFYNEKFNDKATLTADKSSSTAYMQLTSLTSEDSAVYFCARYSNYPYYFDYWGQGTTLTVSS
VL: B2 VL with D1Q, M4L, A9T, A59D
B4: anti-La monoclonal antibody 312B (antibody, IgG1, V domains shown)
VH: QVKLQESGAELMKPGSSVKFSCKAAGYTFTDYWIEWLKQRPGHGLEWIGEILPGSVSIKYNEKFKGKATFTADTSSNTAYMQLSSLTSEDSAVYYCARSRSIYDGYFYYWGQGTTLTVSS
VL: DIVMTQSTASLSASVGETVTITCRASENIYTYLAWYQQKQGKSPQLLVYNAKTLAEGVPSRFSGSGSGTQFSLRINSLQPEDFGSYYCQHHYGTPYTFGGGTKLEIK
B5: anti-La monoclonal antibody 2F9 (antibody, IgG1, V domains shown)
VH: EVQLQESGPGILQPSQTLSLTCSFSGFSLSTSGMGVSWIRQPSGKGLEWLAHIYWDDDKGYNPSLKSRLTISKDTSRNQVFLKITSVDTADTATYYCARGDVEFDYWGQGTTLTVSS
VL: DIVLTQSTASLAVSLGQRATISCRASESVDSYGNSFMHWYQQKPGQPPKLLIYRASNLESGIPARFSGSGSRTDFTLTINPVEADDVATYYCQQSNEDPPTFGSGTKLEIK
B6: anti-La monoclonal antibody 24BG7 (antibody, IgG1, V domains shown)
VH: QVQLQQSGAELARPGASVKLSCKASGYSLTNYGISWVKQRTGQGLEWIGEIYRGSGNSYYNEKFKGKASLTADKSSSTAYMQLSSLTSEDSAVYFCARGGLSFAYWGQGTLVTVSA
VL: QIVLTQSPAIMSASPGEKVTMTCSASSSVTYMHWYQQKSGTSPKRWIYDTSKLASGVPARFSGSGSGTSYSLTISTMEAEDAATYYCQQWISNPPTFGGGTKLEIKR
B7: anti-La monoclonal antibody 7B6 (antibody, V domains shown)
VH: VKLQESGGGLVQPGRPMKLSCVASGFTFSDFWMNWVRQSPEKGLEWVAQIRNKPNNYETYYSDSLKGRFTISRDDSKSSVYLQMNNLRPEDMGIYYCTLGNSWFAYWGQGTLVTVS
VL: DIVITQSPSSLAVSAGEKVTMSCRSSQSLLDSRTRKNYLAWYQQKPGQSPKLLIYWASTRESGVPDRFTGSGSGTDFTLTISNVQAEDLAVYYCKQSYNLPTFGGGTKLEI
notes: Used as hybridoma supernatant or mAb; also called mAk 7B6; anti-La 7B6
B8: anti-La monoclonal antibody 5B9 (antibody, IgG2a, V domains shown)
VH: VQLEESGAELVKPGASVKLSCKASGYAFTHYYIYWIKQRPGQGLEWIGGVNPSNGGTHFNEKFKSKATLTVDKSSSTAYMQLSSLTSEDSAVYYCTRSEYDYGLGFAYWGQGTLVTVSA
VL: IVLTQTTSSLAVSAGEKVTMSCKSSQSLLNSRTPKNYLAWYQQKPGQSPKLLIYWASTRKSGVPDRFTGSGSGTDFTLTISSVQAEDLAVYYCKQSYNLLTFGAGTKLELKR
notes: also called anti-La-5B9

target: T1, eukaryotic murine La protein (mLa) (murine, UniProt P32067 1-415); test: immunoblot, 3T3 total extract
T1 construct: In total extracts or fixed cells; also called endogenous mLa protein; eukaryote-produced murine La protein
T1 sequence (looked up): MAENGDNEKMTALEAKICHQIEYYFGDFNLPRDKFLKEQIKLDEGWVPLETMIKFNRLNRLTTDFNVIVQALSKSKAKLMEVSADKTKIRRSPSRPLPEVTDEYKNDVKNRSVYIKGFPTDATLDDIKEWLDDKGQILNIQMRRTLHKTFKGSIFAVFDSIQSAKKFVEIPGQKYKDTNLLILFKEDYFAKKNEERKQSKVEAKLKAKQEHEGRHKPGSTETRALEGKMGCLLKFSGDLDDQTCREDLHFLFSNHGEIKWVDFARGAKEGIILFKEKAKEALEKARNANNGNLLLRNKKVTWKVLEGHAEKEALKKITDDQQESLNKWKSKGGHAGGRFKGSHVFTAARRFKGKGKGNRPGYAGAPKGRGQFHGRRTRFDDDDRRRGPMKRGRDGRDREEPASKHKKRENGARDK

Binder | binding result
B1 | no binding
B2 | binds
B3 | no binding
B4 | binds

target: T2, bacterially produced recombinant murine La protein (rmLa) (murine, UniProt P32067 1-415); test: immunoblot, bacterially produced rmLa
T2 construct: also called prokaryote-produced murine La protein
T2 sequence (looked up): T1 sequence (looked up)

Binder | binding result
B5 | binds
B1 | no binding
B2 | binds
B3 | no binding
B4 | binds

target: T3, recombinant human La protein (rhLa), SEQ ID No. 1 with His tag (human, UniProt P05455 1-408); test: method and form of the antigen not stated
T3 construct: Also used to decorate the surface of 3T3 and HEK 293T PSCA cells; also called rhLa protein; His 6hLa protein; not shown: His tag
T3 sequence: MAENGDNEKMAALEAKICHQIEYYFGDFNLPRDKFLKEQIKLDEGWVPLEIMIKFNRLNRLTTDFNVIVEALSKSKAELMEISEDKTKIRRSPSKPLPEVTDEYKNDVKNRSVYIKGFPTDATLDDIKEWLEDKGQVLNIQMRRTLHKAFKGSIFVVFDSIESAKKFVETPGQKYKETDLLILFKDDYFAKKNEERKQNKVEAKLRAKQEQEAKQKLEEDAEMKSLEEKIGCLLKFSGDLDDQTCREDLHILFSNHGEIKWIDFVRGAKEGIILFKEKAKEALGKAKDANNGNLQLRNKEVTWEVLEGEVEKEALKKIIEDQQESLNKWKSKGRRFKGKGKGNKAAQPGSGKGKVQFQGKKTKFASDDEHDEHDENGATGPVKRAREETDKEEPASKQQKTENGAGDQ

Binder | Kd
B6 | ~0.1 nM
B7 | ~0.1 nM
B1 | ~0.1 nM
B8 | ~0.1 nM
B2 | ~0.1 nM
B3 | ~0.1 nM
B4 | ~0.1 nM
